Drawing on patent publication US20190002945A1, this text covers KM (µM), transglycosylation kinetics for the deglycosylated rituximab and KM relative to Endo-S2 D184M for four substances.

A value given as a limit tells only on which side of the number the result lay.

The assay deals with deglycosylated rituximab (Fucα1,6GlcNAc-rituximab). Nature of the assay: cell-based or functional assay.

In the case of “Endo-S2 D184A mutant (D184A mutant of wild type Endo-S2) (from UniProt T1WGN1 37-843) (enzyme)”, the KM (µM), transglycosylation kinetics for the deglycosylated rituximab was > 680 µM and the KM relative to Endo-S2 D184M is > 20 fold. In the case of “Endo-S2 D184M mutant (D184M mutant of wild type Endo-S2) (from UniProt T1WGN1 37-843) (enzyme)”, the KM (µM), transglycosylation kinetics for the deglycosylated rituximab came to 32.6 µM. Still for that read-out and setting: under “Endo-S D233A mutant (Streptococcus pyogenes Endoglycosidase-S Asp-233-Ala) (from UniProt Q99Y92 37-995) (enzyme)” stands > 200 µM; under “Endo-S D233M mutant (Streptococcus pyogenes Endoglycosidase-S Asp-233-Met) (from UniProt Q99Y92 37-995) (enzyme)”, 30.2 µM.
